Laboratory results reported in publication doi:10.1101/2024.10.04.616715 (bioRxiv, 2024).

Biological target: the molecule itself
Assay: cryo-EM structure

B1: human XPR1 (Xenotropic and Polytropic Retrovirus Receptor 1) (natural protein, UniProt Q9UBH6 1-696, looked up)
chain: MKFAEHLSAHITPEWRKQYIQYEAFKDMLYSAQDQAPSVEVTDEDTVKRYFAKFEEKFFQTCEKELAKINTFYSEKLAEAQRRFATLQNELQSSLDAQKESTGVTTLRQRRKPVFHLSHEERVQHRNIKDLKLAFSEFYLSLILLQNYQNLNFTGFRKILKKHDKILETSRGADWRVAHVEVAPFYTCKKINQLISETEAVVTNELEDGDRQKAMKRLRVPPLGAAQPAPAWTTFRVGLFCGIFIVLNITLVLAAVFKLETDRSIWPLIRIYRGGFLLIEFLFLLGINTYGWRQAGVNHVLIFELNPRSNLSHQHLFEIAGFLGILWCLSLLACFFAPISVIPTYVYPLALYGFMVFFLINPTKTFYYKSRFWLLKLLFRVFTAPFHKVGFADFWLADQLNSLSVILMDLEYMICFYSLELKWDESKGLLPNNSEESGICHKYTYGVRAIVQCIPAWLRFIQCLRRYRDTKRAFPHLVNAGKYSTTFFMVTFAALYSTHKERGHSDTMVFFYLWIVFYIISSCYTLIWDLKMDWGLFDKNAGENTFLREEIVYPQKAYYYCAIIEDVILRFAWTIQISITSTTLLPHSGDIIATVFAPLEVFRRFVWNFFRLENEHLNNCGEFRAVRDISVAPLNADDQTLLEQMMDQDDGVRNRQKNRSWKYNQSISLRRPRLASQSKARDTKVLIEDTDDEANT
  stoichiometry N: 2
